Assay results published in US10428140B2, “Anti-EphA4 antibody” (EISAI R&D MANAGEMENT CO., LTD., priority 2015, dated 2019).
Several values for one entry are separate records, joined by “and”; a condition that tells them apart may be missing. Identical values can stand only once.

Key:
[1] = molecular target: T1, human EphA4 (Homo sapiens, UniProt P54764); experiment: Affinity of humanized antibodies by SPR (Biacore T200); format: binding; conditions: human EphA4 extracellular region-SEAP-His; for ka / kd: 1:1 binding model; for Kd: KD=kd/ka
T1 construct: made in house; not restated for the human SEAP-His protein
How it was run: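 Humanized antibodies captured on protein A chip (antibody A via immobilized rat anti-mouse IgG1) at about 30 to 60 RU in HBS-EP; human EphA4 extracellular region-SEAP-His injected single-cycle at 0.6 to 50 nM, 120 s association, 900 s dissociation. KD = kd/ka from 1:1 binding fits.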

[2] = molecular target: T2, human EphA5 (Homo sapiens, UniProt P54756); experiment: Selectivity ELISA of humanized antibodies for human Eph receptor; format: binding; conditions: coated protein 1 nM
T2 construct: a protein of the extracellular region of each human Eph receptor fused with the SEAP protein and the His tag; made in house; host or cells: Expi293F cells (culture supernatant)
How it was run: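 Extracellular domains of human Eph receptors fused to SEAP-His were expressed in Expi293F cells for 5 days and captured from supernatant (1 nM final) on anti-His-coated plates. Humanized anti-EphA4 antibodies were incubated 1 h at room temperature, then HRP anti-IgG secondary, TMB substrate, and absorbance at 450 nm.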

[3] = molecular target: T3, human EphA4 (binding to human Ephrin A5) (Homo sapiens, UniProt P54764); experiment: Human EphA4-human ligand binding inhibition ELISA of humanized antibodies (biotinylated Ephrin A5-Fc); conditions: biotinylated human Ephrin A5-Fc 0.7 nM
T3 construct: made in house; not restated for the human SEAP-His protein
How it was run: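 Wells coated with anti-alkaline phosphatase antibody captured human EphA4 extracellular region-SEAP-His at 10 nM. Biotinylated human Ephrin A5-Fc (0.7 nM) and serially diluted humanized antibody (0-3000 nM) were added together for 1 h at room temperature. Bound ligand was detected with HRP-streptavidin and TMBZ at A450.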

T2 sequence (P54756 25-573 limits assumed): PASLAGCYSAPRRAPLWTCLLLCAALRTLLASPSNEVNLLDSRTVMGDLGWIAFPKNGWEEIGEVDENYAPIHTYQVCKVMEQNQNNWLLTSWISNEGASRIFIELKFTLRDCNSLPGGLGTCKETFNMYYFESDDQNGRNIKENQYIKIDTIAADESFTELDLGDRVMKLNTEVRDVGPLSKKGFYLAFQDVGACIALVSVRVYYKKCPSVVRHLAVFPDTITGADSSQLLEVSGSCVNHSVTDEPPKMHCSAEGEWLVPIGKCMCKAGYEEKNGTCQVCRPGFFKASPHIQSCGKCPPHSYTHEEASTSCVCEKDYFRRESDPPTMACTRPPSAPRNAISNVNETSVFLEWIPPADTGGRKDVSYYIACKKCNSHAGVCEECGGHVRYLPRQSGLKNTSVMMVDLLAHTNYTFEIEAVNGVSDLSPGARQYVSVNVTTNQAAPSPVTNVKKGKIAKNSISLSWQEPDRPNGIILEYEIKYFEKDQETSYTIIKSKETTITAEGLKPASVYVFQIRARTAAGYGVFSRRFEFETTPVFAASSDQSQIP
T3 sequence (P54764 20-547): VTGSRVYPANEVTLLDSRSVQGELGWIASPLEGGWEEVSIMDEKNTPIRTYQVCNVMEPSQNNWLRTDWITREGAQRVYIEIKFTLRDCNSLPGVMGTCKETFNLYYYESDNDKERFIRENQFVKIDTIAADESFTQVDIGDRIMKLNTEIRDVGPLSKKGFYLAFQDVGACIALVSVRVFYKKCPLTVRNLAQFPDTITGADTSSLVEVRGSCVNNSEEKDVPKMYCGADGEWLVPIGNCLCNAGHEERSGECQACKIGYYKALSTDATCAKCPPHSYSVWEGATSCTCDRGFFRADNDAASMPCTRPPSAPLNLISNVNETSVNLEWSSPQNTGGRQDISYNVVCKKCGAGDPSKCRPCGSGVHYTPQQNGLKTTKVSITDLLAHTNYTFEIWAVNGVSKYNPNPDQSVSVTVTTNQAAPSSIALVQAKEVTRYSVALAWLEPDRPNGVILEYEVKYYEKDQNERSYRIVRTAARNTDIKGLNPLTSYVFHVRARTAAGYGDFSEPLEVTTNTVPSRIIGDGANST
T1 sequence (P54764 20-547): as above

Molecule | ka [1] | kd [1] | Kd [1] | hEphA5-SEAP-: absorbance at 450 nm, percentage with respect to hEphA4-SEAP-His as 100% [2] | IC50 [3]
158 (antibody, V domains shown, synthetic humanized antibody heavy chain variable region sequence; synthetic humanized antibody light chain variable region sequence) VH: QVQLVQSGSELKKPGASVKVSCKASGYTFTDYSMHWVRQAPGQGLKWMGWINTETGEPTYAQGFTGRFVFSLDTSVSTAYLQISSLKAEDTAVYYCARIPLYYYGSRYWYFDVWGQGTTVTVSS VL: DIQMTQSPSSLSASVGDRVTITCRASENIYRNLAWYQQKPGKAPQLLLYAATNLADGVPSRFSGSGSGTDYTLTISSLQPEDFATYYCQHFWGTPWTFGQGTKVEIK | 310000 M⁻¹ s⁻¹ | 0.00061 s⁻¹ and 0.00056 s⁻¹ | 1.9 nM and 1.6 nM | 6.7% | 2.8 nM
76 (antibody, V domains shown, synthetic humanized antibody heavy chain variable region sequence; synthetic humanized antibody light chain variable region sequence) VH: QVQLVQSGSELKKPGASVKVSCKASGYTFTDYSMHWVRQAPGQGLKWMGWINTETGEPTYAQGFTGRFVFSLDTSVSTAYLQISSLKAEDTAVYYCARIPLYYYGSRYWYFDVWGQGTTVTVSS VL: DIQMTQSPSSLSASVGDRVTITCRASENIYRNLAWYQQKPGKAPKLLVYAATNLADGVPSRFSGSGSGTDYTLTISSLQPEDFATYYCQHFWGTPWTFGQGTKVEIK | 330000 M⁻¹ s⁻¹ | 0.00034 s⁻¹ | 1 nM | 5.3% | 2.9 nM
132 (antibody, V domains shown, synthetic humanized antibody heavy chain variable region sequence; synthetic humanized antibody light chain variable region sequence) VH: QIQLVQSGSELKKPGASVKVSCKASGYTFTDYSMHWVRQAPGQGLKWMGWINTETGEPTYAQGFTGRFVFSLDTSVSTAYLQISSLKAEDTAVYYCARIPLYYYGSRYWYFDVWGQGTTVTVSS VL: EIVMTQSPATLSVSPGERATLSCRASENIYRNLAWYQQKPGQSPRLLIYAATNLADGIPARFSGSGSGTEYTLTISSLQSEDFAVYYCQHFWGTPWTFGQGTKVEIK | 270000 M⁻¹ s⁻¹ | 0.00031 s⁻¹ | 1.2 nM | 4.7% | 3.1 nM
134 (antibody, V domains shown, synthetic humanized antibody heavy chain variable region sequence; synthetic humanized antibody light chain variable region sequence) VH: QVQLVQSGSELKKPGASVKVSCKASGYTFTDYSMHWVRQAPGQGLKWMGWINTETGEPTYAQGFTGRFVFSLDTSVSTAYLQISSLKAEDTAVYYCARIPLYYYGSRYWYFDVWGQGTTVTVSS VL: EIVMTQSPATLSVSPGERATLSCRASENIYRNLAWYQQKPGQSPRLLIYAATNLADGIPARFSGSGSGTEYTLTISSLQSEDFAVYYCQHFWGTPWTFGQGTKVEIK | 280000 M⁻¹ s⁻¹ | 0.00032 s⁻¹ | 1.2 nM | 5.2% | 3 nM
159 (antibody, V domains shown, synthetic humanized antibody heavy chain variable region sequence; synthetic humanized antibody light chain variable region sequence) VH: QVQLVQSGSELKKPGASVKVSCKASGYTFTDYSMHWVRQAPGQGLKWMGWINTETGEPTYADDFKGRFVFSLDTSVSTAYLQISSLKAEDTAVYYCARIPLYYYGSRYWYFDVWGQGTTVTVSS VL: DIQMTQSPSSLSASVGDRVTITCRASENIYRNLAWYQQKPGKAPQLLLYAATNLADGVPSRFSGSGSGTDYTLTISSLQPEDFATYYCQHFWGTPWTFGQGTKVEIK | 310000 M⁻¹ s⁻¹ | 0.00061 s⁻¹ | 2 nM | 5.5% | 2.6 nM
144 (antibody, V domains shown, synthetic humanized antibody heavy chain variable region sequence; synthetic humanized antibody light chain variable region sequence) VH: QVQLVQSGSELKKPGASVKVSCKASGYTFTDYSMHWVRQAPGQGLEWMGWINTETGEPTYADDFKGRFVFSLDTSVSTAYLQISSLKAEDTAVYYCARIPLYYYGSRYWYFDVWGQGTTVTVSS VL: DIQMTQSPSSLSASVGDRVTITCRASENIYRNLAWYQQKPGKAPQLLLYAATNLADGVPSRFSGSGSGTDYTLTISSLQPEDFATYYCQHFWGTPWTFGQGTKVEIK | 400000 M⁻¹ s⁻¹ | 0.00078 s⁻¹ | 2 nM | 5.6% | 3.6 nM
160 (antibody, V domains shown, synthetic humanized antibody heavy chain variable region sequence; synthetic humanized antibody light chain variable region sequence) VH: QIQLVQSGSELKKPGASVKVSCKASGYTFTDYSMHWVRQAPGQGLKWMGWINTETGEPTYADDFKGRFVFSLDTSVSTAYLQISSLKAEDTAVYYCARIPLYYYGSRYWYFDVWGQGTTVTVSS VL: DIQMTQSPSSLSASVGDRVTITCRASENIYRNLAWYQQKPGKAPQLLLYAATNLADGVPSRFSGSGSGTDYTLTISSLQPEDFATYYCQHFWGTPWTFGQGTKVEIK | 320000 M⁻¹ s⁻¹ | 0.00061 s⁻¹ | 1.9 nM | 6.5% | 2.2 nM
133 (antibody, V domains shown, synthetic humanized antibody heavy chain variable region sequence; synthetic humanized antibody light chain variable region sequence) VH: QVQLVQSGSELKKPGASVKVSCKASGYTFTDYSMHWVRQAPGQGLEWMGWINTETGEPTYAQGFTGRFVFSLDTSVSTAYLQISSLKAEDTAVYYCARIPLYYYGSRYWYFDVWGQGTTVTVSS VL: EIVMTQSPATLSVSPGERATLSCRASENIYRNLAWYQQKPGQSPRLLIYAATNLADGIPARFSGSGSGTEYTLTISSLQSEDFAVYYCQHFWGTPWTFGQGTKVEIK | 300000 M⁻¹ s⁻¹ | 0.00032 s⁻¹ | 1.1 nM | 4.7% | 3 nM
75 (antibody, synthetic humanized antibody heavy chain variable region sequence; synthetic humanized antibody light chain variable region sequence; synthetic antibody constant region sequence) VH: QVQLVQSGSELKKPGASVKVSCKASGYTFTDYSMHWVRQAPGQGLEWMGWINTETGEPTYAQGFTGRFVFSLDTSVSTAYLQISSLKAEDTAVYYCARIPLYYYGSRYWYFDVWGQGTTVTVSS VL: DIQMTQSPSSLSASVGDRVTITCRASENIYRNLAWYQQKPGKAPKLLVYAATNLADGVPSRFSGSGSGTDYTLTISSLQPEDFATYYCQHFWGTPWTFGQGTKVEIK ASTKGPSVFPLAPSSKSTSGGTAALGCLVKDYFPEPVTVSWNSGALTSGVHTFPAVLQSSGLYSLSSVVTVPSSSLGTQTYICNVNHKPSNTKVDKRVEPKSCDKTHTCPPCPAPPAAAPSVFLFPPKPKDTLMISRTPEVTCVVVDVSHEDPEVQFNWYVDGVEVHNAKTKPREEQFNSTFRVVSVLTVVHQDWLNGKEYKCKVSNKGLPAPIEKTISKTKGQPREPQVYTLPPSREEMTKNQVSLTCLVKGFYPSDIAVEWESNGQPENNYKTTPPMLDSDGSFFLYSKLTVDKSRWQQGNVFSCSVMHEALHNHYTQKSLSLSPG | 380000 M⁻¹ s⁻¹ | 0.00042 s⁻¹ | 1.2 nM | 4.7% | 2.9 nM
135 (antibody, V domains shown, synthetic humanized antibody heavy chain variable region sequence; synthetic humanized antibody light chain variable region sequence) VH: QVQLVQSGSELKKPGASVKVSCKASGYTFTDYSMHWVRQAPGQGLEWMGWINTETGEPTYADDFKGRFVFSLDTSVSTAYLQISSLKAEDTAVYYCARIPLYYYGSRYWYFDVWGQGTTVTVSS VL: EIVMTQSPATLSVSPGERATLSCRASENIYRNLAWYQQKPGQSPRLLIYAATNLADGIPARFSGSGSGTEYTLTISSLQSEDFAVYYCQHFWGTPWTFGQGTKVEIK | 320000 M⁻¹ s⁻¹ | 0.0004 s⁻¹ | 1.3 nM | 5.0% | 2.5 nM
